Assay: Postprandial serum insulin aspart pharmacokinetics after meal bolus, 3-day ID vs SC infusion
Format: in vivo, human (T1DM patients)
Settings: for ΔAUCIns0−1: 0–1 h; for ΔAUCIns0−1 / ΔAUCIns0–1.5 / ΔAUCIns0–2 / ΔAUCIns0–4 / T50_max_falling / T50_max_rising / Tmax / ΔCmax: mean ± SD; for ΔAUCIns0–1.5: 0–1.5 h; for ΔAUCIns0–2: 0–2 h; for ΔAUCIns0–4: 0–4 h; for Intra-subject variability of Tmax: across all study days and breakfast and lunch meals
Excerpt: This was a single center, open-label, two-period crossover study, randomized by infusion order, in T1DM patients on continuous subcutaneous insulin infusion (CSII). The protocol was approved by an independent ethics committee (Ethikkommission der Ärztekammer Nordrhein, Düsseldorf, Germany), appropriate regulatory bodies (German Federal Institute for Drugs and Medical Devices (BfArM)), and conducted in compliance with good clinical practice (GCP), the Declaration of Helsinki, and applicable regulatory requirements.
The study was completed over a multi-week period consisting of three study visits: a screening visit (V1) and two interventional visits (V2 and V3). After establishing eligibility and enrollment, patients received treatment during two interventional visits: one SC and one ID basal/bolus infusion of insulin aspart (NovoRapid® U-100, Novo Nordisk, Copenhagen, Denmark) administered over 3 days in a randomized order.
For each dosing visit, patients arrived the evening prior to the first standardized meal to verify compliance with protocol criteria. An intravenous catheter was inserted into a peripheral vein of the arm for manual blood sampling. Infusion sets, ID (34 G × 1.5 mm length stainless steel microneedle catheter set, BD Technologies, Research Triangle Park, NC) or SC (25 G × 6 mm length soft cannula, Quick-Set, Medtronic Minimed, Northridge, CA), were connected to an insulin infusion pump (Animas® Vibe™, Animas Corporation, West Chester, PA) and primed according to the manufacturer’s instructions. Sets were placed into the patient’s abdomen (periumbilical, left or right) using a customized applicator for the ID set, or the manufacturer recommended inserter for the SC set (customized Sof-serter® and Quick-serter® respectively, both Medtronic Minimed, Northridge, CA). Due to the small adhesive surface on the microneedle catheter, a modified IV dressing (IV3000 1-Hand, Smith & Nephew, England) was used for additional securement over the catheter. A safety loop was used on all catheter lines as recommended by general insulin pump user guidance (Fig. 1c). The respective infusion sets provided all basal and bolus insulin delivery of insulin aspart for the duration of each 72-h study period. A fluid pressure transducer (BD-DTX™ Plus, Becton Dickinson, Franklin Lakes, NJ) was connected in-line between the pump reservoir and each infusion set to monitor infusion delivery pressure, with automated data capture via a commercial data logging system (LORD MicroStrain®, Williston, VT) to provide a secondary post hoc measure of delivery status. The pump/pressure monitoring system combination was contained in a waist pack for the duration of delivery due to its potentially cumbersome size.
After maintaining targeted blood glucose range during the preceding night, bolus insulin doses were administered via the respective infusion catheter prior to standardized breakfast and lunch test meals on each of the three treatment days. Each meal insulin bolus was calculated based on the patient’s insulin sensitivity and previous hours change in BG per sliding scale then delivered immediately prior to breakfast (t = 0 min) and lunch (t = 360 min) consumption. Breakfast was a high glycemic index (60 g carbohydrates) solid meal, and lunch was a mixed meal based on the individual’s calculated daily energy intake and equivalent in caloric composition by day. Breakfast and lunch meals were consumed within 15 min followed by serial blood sampling with BG monitoring for a period of 6 and 4 h, respectively. Patients were asked to remain sedentary for 2 h after meals. Identical study procedures were utilized for the remaining dosing visit days (Fig. 2).
To assess insulin absorption kinetics and glycemic response, blood samples for measurements of insulin aspart and blood glucose in serum were drawn at predefined time points throughout dosing visits. Serial samples for safety BG determination, but not PK analysis, were obtained at a minimum every 2 h. […]

[1] = ID infusion, Day 1, across meals
[2] = ID infusion, Day 2, across meals
[3] = ID infusion, Day 3, across meals
[4] = ID infusion, Days 1–3 combined, across meals, n = 141–156
[5] = SC infusion, Day 1, across meals
[6] = SC infusion, Day 2, across meals
[7] = SC infusion, Day 3, across meals
[8] = SC infusion, Days 1–3 combined, across meals, n = 141–156

Substance: insulin aspart
- reduction of Tmax compared to the respective SC delivery (ID bolus vs SC): greater than 40%
- decrease of T50_max_falling, ID vs SC (ID bolus vs SC, p < 0.0001): ~25%
- decrease of T50_max_rising, ID vs SC (ID bolus vs SC, p < 0.0001): ~ 50%
- ΔAUCIns0−1 [1]: 39.5 ± 31.4 mU*h/L
- ΔAUCIns0−1 [2]: 43.7 ± 36 mU*h/L
- ΔAUCIns0−1 [3]: 44.8 ± 37.4 mU*h/L
- ΔAUCIns0−1 [4]: 42.5 ± 34.7 mU*h/L
- ΔAUCIns0–1.5 [1]: 56.6 ± 46.4 mU*h/L
- ΔAUCIns0–1.5 [2]: 61.6 ± 54.0 mU*h/L
- ΔAUCIns0–1.5 [3]: 62.8 ± 55.6 mU*h/L
- ΔAUCIns0–1.5 [4]: 60.2 ± 51.6 mU*h/L
- ΔAUCIns0–2 [1]: 68.5 ± 59.0 mU*h/L
- ΔAUCIns0–2 [2]: 74.0 ± 67.8 mU*h/L
- ΔAUCIns0–2 [3]: 75.7 ± 71.2 mU*h/L
- ΔAUCIns0–2 [4]: 72.5 ± 65.5 mU*h/L
- ΔAUCIns0–4 [1]: 86.9 ± 85.8 mU*h/L
- ΔAUCIns0–4 [2]: 92.3 ± 94.5 mU*h/L
- ΔAUCIns0–4 [3]: 94.4 ± 103 mU*h/L
- ΔAUCIns0–4 [4]: 91.0 ± 93.5 mU*h/L
- T50_max_falling [1]: 108 ± 39.2 min
- T50_max_rising [1]: 5.7 ± 2.2 min
- Tmax [1]: 27.6 ± 13.9 min
- ΔCmax [1]: 54.5 ± 42.1 mU/L
- T50_max_falling [2]: 106 ± 32.6 min
- T50_max_rising [2]: 5.8 ± 2.6 min
- Tmax [2]: 29.1 ± 13.3 min
- ΔCmax [2]: 58.6 ± 47.0 mU/L
- T50_max_falling [3]: 107 ± 36.7 min
- T50_max_rising [3]: 6.4 ± 2.3 min
- Tmax [3]: 29.1 ± 12.5 min
- ΔCmax [3]: 61.2 ± 51.5 mU/L
- ΔCmax (ID infusion, Days 1–3 combined, across meals, baseline corrected, n = 141–156): 57.9 ± 46.5 mU/L
- T50_max_falling [4]: 107 ± 36.1 min
- T50_max_rising [4]: 6.0 ± 2.4 min
- Tmax [4]: 28.5 ± 13.2 min
- Intra-subject variability of Tmax (ID): 29.6 %CV
- intra-subject Tmax variability measured by %CV (ID, across meals and days): 30%
- ΔAUCIns0−1 [5]: 29.9 ± 25.3 mU*h/L
- ΔAUCIns0−1 [6]: 30.6 ± 21.1 mU*h/L
- ΔAUCIns0−1 [7]: 33.6 ± 25.7 mU*h/L
- ΔAUCIns0−1 [8]: 31.3 ± 24 mU*h/L
- ΔAUCIns0–1.5 [5]: 45.9 ± 38.9 mU*h/L
- ΔAUCIns0–1.5 [6]: 48.7 ± 35.9 mU*h/L
- ΔAUCIns0–1.5 [7]: 52.8 ± 42.5 mU*h/L
- ΔAUCIns0–1.5 [8]: 49.0 ± 39.0 mU*h/L
- ΔAUCIns0–2 [5]: 57.8 ± 50.9 mU*h/L
- ΔAUCIns0–2 [6]: 62.6 ± 49.6 mU*h/L
- ΔAUCIns0–2 [7]: 66.7 ± 57.0 mU*h/L
- ΔAUCIns0–2 [8]: 62.2 ± 52.3 mU*h/L
- ΔAUCIns0–4 [5]: 77.4 ± 76.2 mU*h/L
- ΔAUCIns0–4 [6]: 85.7 ± 82.3 mU*h/L
- ΔAUCIns0–4 [7]: 87.7 ± 86.9 mU*h/L
- ΔAUCIns0–4 [8]: 83.4 ± 81.3 mU*h/L
- T50_max_falling [5]: 135 ± 51.1 min
- T50_max_rising [5]: 13.2 ± 7.9 min
- Tmax [5]: 46.0 ± 28.4 min
- ΔCmax [5]: 47.4 ± 37.5 mU/L
- T50_max_falling [6]: 143 ± 44.1 min
- T50_max_rising [6]: 12.0 ± 9.5 min
- Tmax [6]: 50.1 ± 19.7 min
- ΔCmax [6]: 47.2 ± 34.8 mU/L
- T50_max_falling [7]: 136 ± 39.5 min
- T50_max_rising [7]: 11.2 ± 5.0 min
- Tmax [7]: 47.1 ± 18.3 min
- ΔCmax [7]: 51.5 ± 40.8 mU/L
- ΔCmax (SC infusion, Days 1–3 combined, across meals, baseline corrected, n = 141–156): 48.7 ± 37.6 mU/L
- T50_max_falling [8]: 138 ± 45.1 min
- T50_max_rising [8]: 12.2 ± 7.7 min
- Tmax [8]: 47.7 ± 22.8 min
- Intra-subject variability of Tmax (SC): 36.7 %CV
- intra-subject Tmax variability measured by %CV (SC, across meals and days): 37%
- Tmax shortening, ID vs SC (across days): ~ 19 min
- time reduction of T50%maxfalling, ID vs SC (across days): ~31 min
- time reduction of T50%maxrising, ID vs SC (across days): ~ 6 min
- less intra-subject variability (%CV), ID compared to SC (across meals and days): ~ 7%
